Residue numbers refer to the chain shown, from its start. Names may count otherwise. Each block holds one binder with its values, some of them ahead of it. *1 amine or outer side, *2 acyl side, *3 side chain or, on linkers, in order; H or OH if unused. Where no end group is shown, it is not given here. [ ]: non-standard residue; d: D form. The star is where a group is joined. 3‑pTza = 3-phosphotriazolyl alanine (also given as 3-phosphoryl-triazolylalanine); 3‑pHis = 3-phosphohistidine, O=C([C@H](Cc1cn(P(=O)(O)O)cn1)N[*:1])[*:2]; Biotin = O=C1N[C@H]2[C@H](CS[C@H]2CCCCC(=O)*)N1; Ahx = NCCCCCC(=O)O
What was measured:
[1] = target: 3-pTza peptide (Biotin-AminocaproicAcid-A.G.A.G.3-pTza.A.G.A.G); assay: BLI; Octet RED96e; biotinylated peptides captured on streptavidin biosensors at 20 nM; Fab in solution, 20-200 nM; 1x HBS-T, 1% BSA
[2] = target: T1, 3-pHis peptide (Biotin-AminocaproicAcid-A.G.A.G.H.A.G.A.G phosphorylated by phosphoramidate); assay: as above
T1 construct: His-peptide, phosphorylated on His5; the phosphoramidate reaction gives a mixture of non-phosphorylated, 1-pHis, 3-pHis and di-pHis peptide; also called Biotinylated ACLYana-3-pHis; ACLYana-pHis; source: synthetic peptide, phosphorylated with potassium phosphoramidate; not shown: biotin, N-terminal, kept
T1 peptide: {Biotin-Ahx}-AGAG[3‑pHis]AGAG

[3] = target: T2, 3-pHis form of ACLY (120 kDa) (Homo sapiens (HEK293T, endogenous), UniProt P53396, 3-phosphohistidine (site not stated)); assay: immunoblot; HEK293T whole cell lysate, 30 µg, alkaline 12% SDS-PAGE and alkaline blotting at 4 °C; 0.5 µg/mL IgG as primary antibody, 1 h at room temperature; HRP secondary antibody; conditions: one partner purified
T2 construct: ACLY (ATP-citrate lyase), 120 kDa band on the immunoblot; source: endogenous, HEK293T lysate

[4] = target: T3, 3-pHis form of the a-subunit of SCS (30 kDa) (Homo sapiens (HEK293T, endogenous), UniProt P53597, 3-phosphohistidine (site not stated)); assay: as above; conditions: one partner purified
T3 construct: alpha subunit of SCS (succinyl-CoA synthetase), 30 kDa band on the immunoblot; source: endogenous, HEK293T lysate

[5] = target: 3-pTza peptide (Biotin-AminocaproicAcid-A.G.A.G.3-pTza.A.G.A.G); assay: BLI; biotinylated peptide captured on streptavidin biosensors at 20 nM; IgG in solution at 20-200 nM; Octet HTX; 1x HBS-T, 1% BSA
[6] = target: T4, 3-pTza peptide (Biotin-AminocaproicAcid-A.G.A.G.3-pTza.A.G.A.G) (synthetic construct); assay: BLI
T4 chain: {Biotin-Ahx}-AGAG[3‑pTza]AGAG

[7] = target: 3-pTza peptide (Biotin-AminocaproicAcid-A.G.A.G.3-pTza.A.G.A.G); assay: BLI; Octet HTX; biotinylated peptides captured on streptavidin biosensors at 20 nM; IgG in solution, 20-200 nM; 1x HBS-T, 1% BSA
[8] = target: T1, 3-pHis peptide …; assay: as above
[9] = target: 3-pTza peptide (Biotin-AminocaproicAcid-A.G.A.G.3-pTza.A.G.A.G); assay: BLI; Octet RED96e; biotinylated peptides captured on streptavidin biosensors at 20 nM; Fab in solution, 20-200 nM; 1x HBS-T, 1% BSA; remark: listed apart in the source
[10] = target: T5, 3-pTza peptide (Biotin-AminocaproicAcid-A.G.A.G.3-pTza.A.G.A.G); assay: BLI; biotinylated peptide captured on streptavidin biosensors at 20 nM; IgG in solution at 20-200 nM; Octet HTX; 1x HBS-T, 1% BSA; conditions: both partners purified
T5 chain: {Biotin-Ahx}-AGAG[3‑pTza]AGAG

[11] = target: T1, 3-pHis peptide …; assay: as above; conditions: both partners purified
[12] = target: T1, 3-pHis peptide …; assay: as above; conditions: both partners purified

T3 sequence (P53597 41-346): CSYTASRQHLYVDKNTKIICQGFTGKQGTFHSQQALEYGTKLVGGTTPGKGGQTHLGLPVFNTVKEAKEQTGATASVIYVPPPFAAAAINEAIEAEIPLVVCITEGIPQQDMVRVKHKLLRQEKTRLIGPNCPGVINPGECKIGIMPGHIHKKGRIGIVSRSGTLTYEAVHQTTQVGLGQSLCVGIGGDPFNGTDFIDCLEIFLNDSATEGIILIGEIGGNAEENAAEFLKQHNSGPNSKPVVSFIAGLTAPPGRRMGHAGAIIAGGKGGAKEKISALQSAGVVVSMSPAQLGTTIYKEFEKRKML
T2 sequence (P53396 whole entry): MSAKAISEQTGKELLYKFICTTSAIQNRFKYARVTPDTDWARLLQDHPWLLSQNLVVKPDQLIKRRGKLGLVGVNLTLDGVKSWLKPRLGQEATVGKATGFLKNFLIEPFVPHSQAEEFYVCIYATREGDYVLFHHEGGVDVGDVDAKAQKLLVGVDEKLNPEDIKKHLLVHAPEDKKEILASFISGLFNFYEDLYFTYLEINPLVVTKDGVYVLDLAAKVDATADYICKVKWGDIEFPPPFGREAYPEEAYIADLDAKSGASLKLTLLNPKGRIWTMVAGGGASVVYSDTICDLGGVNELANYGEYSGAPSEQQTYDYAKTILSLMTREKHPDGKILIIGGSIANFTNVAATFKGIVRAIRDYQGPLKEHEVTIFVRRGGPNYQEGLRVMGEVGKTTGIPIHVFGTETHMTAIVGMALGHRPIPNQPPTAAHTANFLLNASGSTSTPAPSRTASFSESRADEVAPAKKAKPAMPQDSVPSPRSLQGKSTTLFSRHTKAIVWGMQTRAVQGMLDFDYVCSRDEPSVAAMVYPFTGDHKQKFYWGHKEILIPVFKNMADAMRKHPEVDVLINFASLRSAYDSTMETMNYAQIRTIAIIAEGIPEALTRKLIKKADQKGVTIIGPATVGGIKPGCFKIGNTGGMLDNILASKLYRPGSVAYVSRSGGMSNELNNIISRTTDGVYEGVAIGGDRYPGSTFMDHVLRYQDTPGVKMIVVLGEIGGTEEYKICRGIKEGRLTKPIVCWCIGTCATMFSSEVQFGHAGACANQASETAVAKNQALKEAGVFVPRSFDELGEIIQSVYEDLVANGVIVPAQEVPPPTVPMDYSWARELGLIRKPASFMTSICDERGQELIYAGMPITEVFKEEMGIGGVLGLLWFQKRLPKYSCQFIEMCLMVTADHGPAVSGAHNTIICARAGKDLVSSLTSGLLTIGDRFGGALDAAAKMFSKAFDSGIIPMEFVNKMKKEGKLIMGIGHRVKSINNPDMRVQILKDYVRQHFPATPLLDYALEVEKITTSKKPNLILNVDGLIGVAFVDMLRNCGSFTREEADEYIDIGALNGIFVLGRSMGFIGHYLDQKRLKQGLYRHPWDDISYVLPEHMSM

B2: rSC44 IgG (antibody, V domains shown)
VH: QSVKESGRGLVQPGGSLTLTCTASGFSIDSYGFSWVRQAPGKGLEHIGYLTAGGRAFYASWAKSRSTITRNTNENTVTLKMTSLTAADTATYFCAKLGSGNPVAIWGPGTLVTVSS
VL: QVLTQTPSFTSAAVGGTVTINCQSSQSVWRNKNLAWYQQKPGQPPKRLIYAIATLDSGVPSRFSGSGSGTQFTLTISDVQCDDAATYYCVGHYGSENDAYYAFGGGTEVVVK
notes: rabbit SC44-8 IgG heavy chain; rabbit IgG constant region; as the light chain of m9; Rabbit IgG; also called SC44-8; rSC44-8; copies: 2 + 2
binding result [3]: binds
binding result [4]: binds

B3: hSC44.1 IgG (antibody, V domains shown)
VH: EVQLVESGGGLVQPGGSLRLSCTASGFSIDSYGFSWVRQAPGKGLEHIGYLTAGGRAFYASWAKSRSTITRNTNENTVTLKMNSLRAEDTAVYYCAKLGTGSPIAIWGQGTLVTVSS
VL: DIQMTQSPSSLSASVGDRVTITCRASQSVWRNKNVAWYQQKPGKAPKRLIYAIASLYSGVPSRFSGSGSGTDFTLTISSLQPEDFATYYCVGHYGSENDAYYAFGQGTKVEIK
Kd [5]: 0.588 nM
koff [5]: 8.32e-05 s⁻¹
kon [5]: 141000 M⁻¹ s⁻¹

B4: hSC44.13 IgG (antibody, V domains shown)
VH: EVQLVESGGGLVQPGGSLRLSCTASGFSIDSYGFSWVRQAPGKGLEHIGYLTAGGRAFYASWAKSRSTITRNTNENTVTLKMNSLRAEDTAVYYCAKLGTGSPVAIWG
VL: B3 VL
Kd [5]: 0.405 nM
koff [5]: 7.37e-05 s⁻¹
kon [5]: 182000 M⁻¹ s⁻¹

B5: hSC44.3 IgG (antibody, V domains shown)
VH: B4 VH with L98I, T100S
VL: B3 VL
Kd [5]: 0.352 nM
koff [5]: 1.43e-05 s⁻¹
kon [5]: 40700 M⁻¹ s⁻¹

B7: hSC44 IgG (antibody, V domains shown)
VH: B3 VH with T100S, S102N, I104V
VL: B3 VL
koff [6]: 9.3e-05 s⁻¹
Kd [7]: 1.2 nM

B10: hSC44 Fab (Fab, V domains shown)
VH: B3 VH with T100S, S102N, I104V
VL: B3 VL
Kd [1]: 1.62 nM
koff [1]: 8.16e-05 s⁻¹
kon [1]: 50600 M⁻¹ s⁻¹
Kd [2]: 40.5 nM
koff [2]: 0.00235 s⁻¹
kon [2]: 57900 M⁻¹ s⁻¹
Kd [9]: 1.5 nM

B11: hSC44.20.N32F^L Fab (Fab, V domains shown)
VH: B3 VH with P103R, I104F
VL: B3 VL with N34F
Kd [1]: 0.892 nM
koff [1]: 0.000177 s⁻¹
kon [1]: 199000 M⁻¹ s⁻¹
Kd [2]: 6.63 nM
koff [2]: 0.000697 s⁻¹
kon [2]: 105000 M⁻¹ s⁻¹

B12: hSC44.20 IgG (antibody, V domains shown)
VH: B3 VH with P103R, I104F
VL: B3 VL with M4L
notes: human IgG1, kappa light chain
koff [10]: < 1e-07 s⁻¹
kon [10]: 257000 M⁻¹ s⁻¹
Kd [11]: 21 nM

B13: hSC44.20.N32F^L IgG (antibody, V domains shown)
VH: B3 VH with P103R, I104F
VL: B3 VL with N34F
notes: as the heavy chain of m4 (heavy chain of m2 with the stated CDR-H3 changes, Kabat numbering); as the light chain of m1 with N32F in CDR-L1 (Kabat numbering); source: Expi293, transfected, purified (CaptoL, SEC); copies: 2 + 2
binding result [3]: binds
binding result [4]: binds
Kd [8]: 1.6 nM
Kd [7]: < 1.54 nM

B14: hSC44.8 IgG (antibody, V domains shown)
VH: B4 VH with L98I, P103R
VL: B3 VL
Kd [5]: 0.185 nM
koff [5]: 6.66e-05 s⁻¹
kon [5]: 359000 M⁻¹ s⁻¹

B17: hSC44.20 Fab (Fab, V domains shown)
VH: B3 VH with P103R, I104F
VL: B3 VL
Kd [1]: 0.421 nM
koff [1]: 0.000103 s⁻¹
kon [1]: 245000 M⁻¹ s⁻¹
Kd [2]: 17.5 nM
koff [2]: 0.0042 s⁻¹
kon [2]: 240000 M⁻¹ s⁻¹

B18: hSC44.20 IgG (antibody, V domains shown)
VH: B3 VH with P103R, I104F
VL: B3 VL
notes: as the heavy chain of m2 with the stated CDR-H3 changes (Kabat numbering); as the light chain of m1; source: Expi293, transfected, purified (CaptoL, SEC); copies: 2 + 2
binding result [3]: binds
binding result [4]: binds
Kd [7]: < 0.001 nM

Continued, values first:

Kd [1]: 0.668 nM
koff [1]: 0.000135 s⁻¹
kon [1]: 203000 M⁻¹ s⁻¹
Kd [2]: 48.5 nM
koff [2]: 0.00591 s⁻¹
kon [2]: 122000 M⁻¹ s⁻¹
B1: rSC44 Fab (Fab, V domains shown)
VH: B2 VH
VL: B2 VL

Kd [5]: 1.21 nM
koff [5]: 3e-05 s⁻¹
kon [5]: 24900 M⁻¹ s⁻¹
B6: hSC44.28 IgG (antibody, V domains shown)
VH: B4 VH with V104L
VL: B3 VL with N34F

Kd [1]: 0.83 nM
koff [1]: 0.000186 s⁻¹
kon [1]: 224000 M⁻¹ s⁻¹
Kd [2]: 5.11 nM
koff [2]: 0.00066 s⁻¹
kon [2]: 129000 M⁻¹ s⁻¹
B8: hSC44.20.N32Y^L Fab (Fab, V domains shown)
VH: B3 VH with P103R, I104F
VL: B3 VL with N34Y

Kd [8]: 9.5 nM
Kd [7]: < 0.001 nM
B9: hSC44.20.N32Y^L IgG (antibody, V domains shown)
VH: B3 VH with P103R, I104F
VL: B3 VL with N34Y

Kd [5]: 2.71 nM
koff [5]: 3.98e-05 s⁻¹
kon [5]: 14700 M⁻¹ s⁻¹
B15: hSC44.31 IgG (antibody, V domains shown)
VH: B3 VH with S102T, I104F
VL: B3 VL with N34Y

Kd [5]: 0.495 nM
koff [5]: 4.49e-05 s⁻¹
kon [5]: 90600 M⁻¹ s⁻¹
B16: hSC44.22 IgG (antibody, V domains shown)
VH: B4 VH with S102T
VL: B3 VL

koff [10]: < 1e-07 s⁻¹
kon [10]: 35100 M⁻¹ s⁻¹
koff [12]: 2.61e-05 s⁻¹
kon [12]: 8880 M⁻¹ s⁻¹
B19: hSC44.20.N32Y^L IgG (antibody, V domains shown)
VH: B3 VH with P103R, I104F
VL: B3 VL with M4L, N34Y
notes: human IgG1, kappa light chain

Kd [10]: 1.54 nM
koff [10]: 5.73e-05 s⁻¹
kon [10]: 37300 M⁻¹ s⁻¹
Kd [12]: 1.68 nM
koff [12]: 1.64e-05 s⁻¹
kon [12]: 13900 M⁻¹ s⁻¹
B20: hSC44.20.N32F^L IgG (antibody, V domains shown)
VH: B3 VH with P103R, I104F
VL: B3 VL with M4L, N34F
notes: human IgG1, kappa light chain

From publication PMC12660843, “Using phage display for rational engineering of a higher-affinity humanized 3’ phosphohistidine-specific antibody” (Communications Chemistry, 2025)
